System: human Burkitt lymphoma Raji cells
Test: Test Example 1: cytotoxic action of complement and antibody drug (rituximab) with sample added, PI method
Assay type: cell-based
Settings: for Cytotoxic activity (%): 100 μl/well of 1000 μg/ml sample, 1 hour, PI
Experimental: Test Sample 1 was prepared with the lactoferrin hydrolysate mixture prepared in Preparation Example 1, of which concentration was adjusted to 1000 μg/ml in RPMI 1640 medium (Sigma, catalog number: R8758) containing 7.5% fetal bovine serum (Gibco, catalog number: 10099-141) and 1% penicillin-streptomycin (Gibco, catalog number: 15070-063) [henceforth this solution is referred to as “dilution solution”]. Furthermore, Control Sample 1 was prepared by diluting lactoferrin to a concentration of 1000 μg/ml with the dilution solution.
As target cells for measurement of cytotoxic action of complement and antibody drug, human Burkitt lymphoma Raji cells (ATCC CCL-86, obtained from American Type Culture Collection (10801 University Boulevard, Manassas, Va. 20110-2209, USA)) were used, and the cells were suspended at a density of 2×10^6 cells/ml by using the dilution solution to prepare a Raji cell suspension. As an antibody drug solution, rituximab (Zenyaku Kogyo, sold by Nippon Roche) that recognizes the CD20 antigen was used, and it was prepared at a concentration of 200 μg/ml using the dilution solution. As a complement solution, Human serum AB (Cosmobio, catalog number: 832000027) was used. These antibody drug solution and complement solution were also used for Test Examples 2 to 5 described below.
Viability determination of the cells was performed by the method using propidium iodide (PI, Dojindo, catalog number: P378) [Cytometry, Vol. 8, No. 4, pp. 421-426, 1987] or the method using Calcein-AM (Dojindo, catalog number: 341-07901) [Apoptosis, Vol. 3, No. 3, pp. 195-202, 1998].
The Raji cell suspension was added to each well of a 24-well culture plate (NUNC, catalog number: 143982) in a volume of 100 μl each (2×10^5 cells each). The 24 wells were divided into four groups, to wells (6 wells) of one group among them, 50 μl/well of the antibody drug solution and 250 μl/well of dilution solution were added as “Addition of antibody drug”. Further, to wells (6 wells) of another group, 100 μl of the complement solution and 200 μl of the dilution solution were added as “Addition of complement”. Furthermore, to wells (6 wells) of another group, 50 μl of the antibody drug solution, 100 μl of the complement solution and 150 μl of the dilution solution were added as “Addition of antibody drug+complement”. To wells (6 wells) of the remaining one group, 300 μl of the dilution solution was added as “No addition”.
For the aforementioned four groups, 100 μl/well of Test Sample 1 (4 groups×2 wells), Control Sample 1 (4 groups×2 wells) or the dilution solution (4 groups×2 wells) mentioned above was added as “Test Sample Group 1”, “Control Sample Group 1” and “Negative Sample Group 1”, respectively.
By using the 24-well plate prepared as described above, the cells were cultured under the conditions of 37° C. and 5% carbon dioxide (CO2) for 1 hour using an incubator (Napco, catalog number: 5300). Then, the cells of each sample group were collected, and the rate of dead cells in each was examined by the aforementioned method using PI. Cytotoxic activity was calculated based on a case where all the target cells were killed, which was taken as 100%.

B1: Control Sample Group 1: Undecomposed commercially available bovine lactoferrin (Morinaga Milk Industry Co., Ltd.) used as control (protein, listed as Bos taurus)
chain: MKLFVPALLSLGALGLCLAAPRKNVRWCTISQPEWFKCRRWQWRMKKLGAPSITCVRRAFALECIRAIAEKKADAVTLDGGMVFEAGRDPYKLRPVAAEIYGTKESPQTHYYAVAVVKKGSNFQLDQLQGRKSCHTGLGRSAGWIIPMGILRPYLSWTESLEPLQGAVAKFFSASCVPCIDRQAYPNLCQLCKGEGENQCACSSREPYFGYSGAFKCLQDGAGDVAFVKETTVFENLPEKADRDQYELLCLNNSRAPVDAFKECHLAQVPSHAVVARSVDGKEDLIWKLLSKAQEKFGKNKSRSFQLFGSPPGQRDLLFKDSALGFLRIPSKVDSALYLGSRYLTTLKNLRETAEEVKARYTRVVWCAVGPEEQKKCQQWSQQSGQNVTCATASTTDDCIVLVLKGEADALNLDGGYIYTAGKCGLVPVLAENRKSSKHSSLDCVLRPTEGYLAVAVVKKANEGLTWNSLKDKKSCHTAVDRTAGWNIPMGLIVNQTGSCAFDEFFSQSCAPGADPKSRLCALCAGDDQGLDKCVPNSKEKYYGYTGAFRCLAEDVGDVAFVKNDTVWENTNGESTADWAKNLNREDFRLLCLDGTRKPVTEAQSCHLAVAPNHAVVSRSDRAAHVKQVLLHQQALFGKNGKNCPDKFCLFKSETKNLLFNDNTECLAKLGGRPTYEEYLGTEYVTAIANLKKCSTSPLLEACAFLTR
modifications: sig_peptide (1)...(19) Lactoferrin
**Q.** B1 was tested. Which “change of cytotoxic activity compared with the negative sample group” value (Addition of antibody drug + complement) did it give?
**A.** did not increase

**Q.** What about the “Cytotoxic activity (%)” value (Addition of antibody drug + complement (rituximab, human serum AB)) of the same molecule?
**A.** 24.3%

**Q.** What about the “Cytotoxic activity (%)” value (Addition of antibody drug only) of the same molecule?
**A.** 1.0%

**Q.** What about the “Cytotoxic activity (%)” value (Addition of complement only) of the same molecule?
**A.** 1.2%

**Q.** What about the “Cytotoxic activity (%)” value (No addition (no antibody drug, no complement)) of the same molecule?
**A.** 1.0%
